Measurements published in patent publication US20050203007A1 (REGENTS OF THE UNIVERSITY OF MICHIGAN, published 2005).

What was measured:
secreted, soluble furin [1] = biological target: T1, secreted, soluble furin (human, UniProt P09958 108-715, limits assumed); experiment: enzyme inhibition, purified variant
T1 construct: Secreted, soluble construct; also called human furin

human PC7 = biological target: T2, human PC7 (human, UniProt Q16549 142-667, limits assumed); experiment: enzyme inhibition, purified variant
T2 sequence (looked up): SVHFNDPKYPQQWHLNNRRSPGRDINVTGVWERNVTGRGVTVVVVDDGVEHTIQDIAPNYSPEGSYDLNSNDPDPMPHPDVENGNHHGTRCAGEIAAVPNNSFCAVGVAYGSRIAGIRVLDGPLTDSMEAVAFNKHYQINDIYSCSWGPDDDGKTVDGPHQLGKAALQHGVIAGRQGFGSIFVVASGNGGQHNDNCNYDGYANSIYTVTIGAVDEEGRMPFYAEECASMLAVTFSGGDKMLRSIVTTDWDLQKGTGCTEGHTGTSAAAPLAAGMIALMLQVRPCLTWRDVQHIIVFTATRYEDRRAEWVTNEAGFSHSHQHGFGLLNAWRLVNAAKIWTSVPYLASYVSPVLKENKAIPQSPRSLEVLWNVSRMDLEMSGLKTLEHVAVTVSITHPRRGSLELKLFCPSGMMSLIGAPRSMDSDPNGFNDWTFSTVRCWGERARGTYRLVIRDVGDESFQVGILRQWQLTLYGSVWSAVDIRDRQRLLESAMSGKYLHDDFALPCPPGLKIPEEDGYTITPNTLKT

secreted, soluble Kex2 [2] = biological target: T3, secreted, soluble Kex2 (Saccharomyces cerevisiae, UniProt P13134 114-613, limits assumed); experiment: enzyme inhibition, purified variant
T3 construct: Secreted, soluble construct; also called kexin
T3 sequence (looked up): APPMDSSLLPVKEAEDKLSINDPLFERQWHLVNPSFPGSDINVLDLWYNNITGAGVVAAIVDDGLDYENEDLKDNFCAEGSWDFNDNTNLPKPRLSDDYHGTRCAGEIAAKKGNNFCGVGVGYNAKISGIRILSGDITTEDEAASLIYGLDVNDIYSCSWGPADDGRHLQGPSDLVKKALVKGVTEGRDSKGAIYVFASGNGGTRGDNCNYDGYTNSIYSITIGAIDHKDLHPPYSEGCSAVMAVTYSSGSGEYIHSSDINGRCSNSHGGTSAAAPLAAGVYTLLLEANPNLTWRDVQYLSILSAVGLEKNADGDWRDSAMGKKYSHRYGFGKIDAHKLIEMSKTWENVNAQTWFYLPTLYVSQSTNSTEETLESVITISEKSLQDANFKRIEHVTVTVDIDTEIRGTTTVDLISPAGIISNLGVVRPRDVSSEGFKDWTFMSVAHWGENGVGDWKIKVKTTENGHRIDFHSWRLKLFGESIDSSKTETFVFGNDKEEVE

subtilisin Carlsberg = biological target: T4, subtilisin Carlsberg (UniProt P00780 106-379); experiment: enzyme inhibition
T4 sequence (looked up): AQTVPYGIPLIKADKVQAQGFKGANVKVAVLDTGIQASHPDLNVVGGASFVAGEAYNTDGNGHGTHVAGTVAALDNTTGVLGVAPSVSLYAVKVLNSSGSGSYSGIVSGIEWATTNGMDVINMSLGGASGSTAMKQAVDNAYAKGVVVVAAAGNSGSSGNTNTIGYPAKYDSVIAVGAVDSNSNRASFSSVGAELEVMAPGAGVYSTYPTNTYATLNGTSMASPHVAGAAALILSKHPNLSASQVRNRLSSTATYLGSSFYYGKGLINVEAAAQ

secreted, soluble furin [3] = biological target: T1, secreted, soluble furin; experiment: estimated from koff
Method: (§1) In some aspects of the present invention, biological application of the eglin c variants of the present invention as inhibitors of processing in vivo depends upon the rate of binding to target enzymes, where it is critical. Therefore, the rate of action of eglin variants with Kex2 and furin was examined by incubating 5×10⁻¹⁰ M enzyme with inhibitor at molar ratios of inhibitor to enzyme ranging from 10 to 80. […] The relationship between kobs and inhibitor concentration was linear. The values of kₒₙ were determined from the slope of such curves, and dissociation rate constants (koff) were calculated (koff=kₒₙ/Kₐ). For R4R1-eglin, koff was calculated to be 2×10⁻⁴s⁻¹ for Kex2, and 3×10⁻⁴s⁻¹ for furin. […] Similarly, the t_{1/2} of the complex of M4R1-eglin with Kex2 was estimated to be 3 h. For complex of R4K1-eglin with furin, koff was calculated to be 2×10⁻⁴s⁻¹ implying that the koff and t_{1/2} for this complex are similar to those for the complex of R4R1-eglin with furin.

secreted, soluble Kex2 [4] = biological target: T3, secreted, soluble Kex2; experiment: estimated from koff
Method: as §1

secreted, soluble furin [5] = biological target: T1, secreted, soluble furin; experiment: equilibrium enzyme inhibition
secreted, soluble Kex2 [6] = biological target: T3, secreted, soluble Kex2; experiment: equilibrium enzyme inhibition
secreted, soluble furin [7] = biological target: T1, secreted, soluble furin; experiment: calculated from kon (progress curves) and Ka
Method: as §1

secreted, soluble Kex2 [8] = biological target: T3, secreted, soluble Kex2; experiment: calculated from kon (progress curves) and Ka
Method: as §1

T1 sequence (P09958 108-715 limits assumed): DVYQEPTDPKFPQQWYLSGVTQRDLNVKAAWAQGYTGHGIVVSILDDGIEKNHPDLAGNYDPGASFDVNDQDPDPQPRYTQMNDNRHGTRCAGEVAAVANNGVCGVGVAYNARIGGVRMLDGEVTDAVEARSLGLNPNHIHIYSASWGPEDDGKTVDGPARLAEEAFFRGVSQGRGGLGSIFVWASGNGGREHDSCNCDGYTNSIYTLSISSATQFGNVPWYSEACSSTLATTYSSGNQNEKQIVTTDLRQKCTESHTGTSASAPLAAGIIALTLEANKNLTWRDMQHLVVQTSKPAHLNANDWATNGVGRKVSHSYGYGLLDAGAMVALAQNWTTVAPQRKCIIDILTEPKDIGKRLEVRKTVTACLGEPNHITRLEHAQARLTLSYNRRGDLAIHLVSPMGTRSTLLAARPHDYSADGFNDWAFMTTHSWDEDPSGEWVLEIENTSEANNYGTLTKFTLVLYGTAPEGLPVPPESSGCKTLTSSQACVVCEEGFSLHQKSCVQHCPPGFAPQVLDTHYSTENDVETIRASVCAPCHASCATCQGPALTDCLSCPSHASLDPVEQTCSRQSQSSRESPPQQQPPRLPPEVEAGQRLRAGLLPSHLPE

Ki (secreted, soluble furin [1]): 2.5 nM | Ki (human PC7): 1.3 nM | Ki (secreted, soluble Kex2 [2]): 0.91 nM | Ka (subtilisin Carlsberg): 6.5e+08 M⁻¹ | half-life (t1/2) of the complex (secreted, soluble furin [3]): ~1 h | half-life (t1/2) of the complex (secreted, soluble Kex2 [4]): ~1 h | fold higher affinity than L1-eglin (secreted, soluble furin [5]): 46000 fold | fold increase in affinity relative to M4R1-eglin (secreted, soluble furin [5]): 1430 fold | fold decrease in affinity relative to M4R1-eglin (secreted, soluble Kex2 [6]): 2.5 fold | fold stronger binding by Kex2 than by furin (secreted, soluble Kex2 [6]): ~3 fold | koff (secreted, soluble furin [7]): 0.0003 s⁻¹ | koff (secreted, soluble Kex2 [8]): 0.0002 s⁻¹
B1: R4R1-eglin (designed binder)
chain: SMGSELKSFPEVVGKTVDQAREYFTLHYPQYDVYFLPEGSRVTRDLRYNRVRVFYNPGTNVVNHVPHVG
notes: N-terminal Met removed; also called Tyr49-R4R1-; D33Y49
